Measurements published in patent CN113461812A (BEIJING LUFEI BIOTECHNOLOGY CO LTD, dated 2021).

Legend:
新型冠状病毒(假病毒) S蛋白 = 新型冠状病毒(假病毒) S蛋白 (SARS-CoV-2, UniProt P0DTC2 14-1273); experiment: cell-based or functional assay
新型冠状病毒RBD蛋白 (野生型) = biological target: T1, 新型冠状病毒RBD蛋白 (野生型) (SARS-CoV-2, UniProt P0DTC2 319-541); experiment: SPR (Biacore), 1:1 binding fit
T1 construct: domain: RBD; also called WT; 新冠病毒RBD蛋白野生型

B1: 人源化新冠病毒中和性抗体nCoV-00D (antibody, V domains shown)
VH: QVQLQQSGAELVKPGASVKLSCKTSGYTFTRYYIYWVKQRPGQGLEWIGEINPNNGGTNFNEKFKSKATLTVDKSSNTAYMQLSSLTSEDSAVYYCTIFITTVIARDYWGQGTLVTVSA
VL: DIVLTQSPASLAVSLGQRATISCRASESVEYSGTTLMQWFQQKPGQPPKLLIYAASNVESGVPARFSGSGSGTDFSLNIHPVEEDDVAMYFCHQSREVPWTFGGGTKLEIKR
notes: also called nCoV-00D抗体
IC50, 假病毒中和试验 (Huh7细胞, 荧光素酶值) (新型冠状病毒(假病毒) S蛋白): ~9 ng/mL
Kd (新型冠状病毒RBD蛋白 (野生型)): 0.532 nM
koff (新型冠状病毒RBD蛋白 (野生型)): 0.000133 s⁻¹
kon (新型冠状病毒RBD蛋白 (野生型)): 251000 M⁻¹ s⁻¹
